# B1: human neutrophil elastase (enzyme, UniProt P08246 30-247, looked up)
# chain: IVGGRRARPHAWPFMVSLQLRGGHFCGATLIAPNFVMSAAHCVANVNVRAVRVVLGAHNLSRREPTRQVFAVQRIFENGYDPVNLLNDIVILQLNGSATINANVQVAQLPAQGRRLGNGVQCLAMGWGLLGRNRGIASVLQELNVTVVTSLCRRSNVCTLVRGRQAGVCFGDSGSPLVCNGLIHGIASFVRGGCASGLYPDAFAPVAQFVNWIDSIIQ
# notes: Described as active NE
# Target: T1, human α1-antitrypsin (human, UniProt P01009 25-418)
# T1 construct: Secreted recombinant human α1AT found in culture supernatant; also called α1AT; human α1AT
# T1 sequence (P01009 25-418 limits assumed): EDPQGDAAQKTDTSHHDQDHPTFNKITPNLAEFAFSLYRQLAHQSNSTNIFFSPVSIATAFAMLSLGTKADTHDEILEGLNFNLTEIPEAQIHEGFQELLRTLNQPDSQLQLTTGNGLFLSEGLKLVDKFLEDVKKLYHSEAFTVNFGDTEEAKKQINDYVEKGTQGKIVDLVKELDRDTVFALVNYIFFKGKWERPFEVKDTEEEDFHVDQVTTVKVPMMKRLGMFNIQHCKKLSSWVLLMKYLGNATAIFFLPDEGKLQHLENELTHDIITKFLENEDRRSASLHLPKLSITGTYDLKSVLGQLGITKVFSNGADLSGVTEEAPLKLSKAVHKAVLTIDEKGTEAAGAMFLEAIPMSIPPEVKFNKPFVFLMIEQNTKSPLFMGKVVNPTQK
# Experiment: supernatant incubated with active NE (3, 30, 300 nM; 30 min, 23°), then immunoprecipitation, SDS-PAGE and autoradiography
# Procedure: (B) At various times after infection, the lungs were minced, incubated for 1 hour in methionine-free LHC-8 medium (37°), and then incubated for 24 hours in medium with (³⁵S)-methionine (1 ml medium/150 mg tissue; 500 μCi/ml). The supernatant was then evaluated by immunoprecipitation with a rabbit antibody to human α1AT (Boehringer Mannheim), SDS-polyacrylamide gels, and autoradiography as in FIG. 2E. Trichloroacetic acid-precipitable radioactivity was evaluated by immunoprecipitation (for lanes 10-15, 2×10⁶ cpm; for lanes 16-18, 1×10⁶ cpm). Autoradiogram exposures for lanes 10 to 15 were identical; lanes 16-18 were evaluated at a different time, and the exposures adjusted such that the intensity of the α1AT band without NE was similar to lane 13. The ability of the synthesized human α1AT to inhibit its natural substrate, NE, was evaluated by incubating the supernatant with various dilutions of active NE (30 min, 23°) before immmunoprecipitation.
# The de novo expression of the human α1AT protein lasted at least 1 week (lane 15) and the secreted human α1AT was functional, as shown by its ability to form a complex with its natural target, human neutrophil elastase (NE) (lanes 16-18).
binder,measurement,value
B1,binding result,binds
